{"source": "paper doi:10.1101/2023.11.28.568818", "about": "(bioRxiv, 2023)", "target": "the molecule itself", "assay": "ThT fluorescence + negative stain TEM"}
{"protein": "DNIKHVPGGGSVQIVYKPV", "note": "[jR2R3 peptide (tau residues 295-313)]", "values": [{"measurement": "binding result", "value": "binds"}]}
{"protein": "VPGGGSVQIVYKPV", "note": "[jΔR3 peptide (C-terminal half of jR2R3, tau 300-313)]", "values": [{"measurement": "binding result", "value": "binds"}]}
{"protein": "VLGGGSVQIVYKPV", "note": "[jΔR3-P301L peptide (tau 300-313 with P301L)]", "values": [{"measurement": "binding result", "value": "binds"}]}
